Among the data in patent US20250368742A1 (D2M BIOTHERAPEUTICS, published 2025) are EC50 values, retold here.

One experiment addresses T1, human MICA008 on cells (human).
T1 construct: whole, on cells; also called CHO-MICA008; C1R-MICA008
Put plainly: flow cytometry, CHO-MICA008 cells.

A further experiment addresses T2, human MICB005 on cells (human).
T2 construct: whole, on cells; also called CHO-MICB005; C1R-MICB005
As to the kind of experiment: flow cytometry, CHO-MICB005 cells. Background: Flow cytometry measures light scatter and fluorescence of single cells or particles in a stream.

T1 sequence (Q29983 whole entry): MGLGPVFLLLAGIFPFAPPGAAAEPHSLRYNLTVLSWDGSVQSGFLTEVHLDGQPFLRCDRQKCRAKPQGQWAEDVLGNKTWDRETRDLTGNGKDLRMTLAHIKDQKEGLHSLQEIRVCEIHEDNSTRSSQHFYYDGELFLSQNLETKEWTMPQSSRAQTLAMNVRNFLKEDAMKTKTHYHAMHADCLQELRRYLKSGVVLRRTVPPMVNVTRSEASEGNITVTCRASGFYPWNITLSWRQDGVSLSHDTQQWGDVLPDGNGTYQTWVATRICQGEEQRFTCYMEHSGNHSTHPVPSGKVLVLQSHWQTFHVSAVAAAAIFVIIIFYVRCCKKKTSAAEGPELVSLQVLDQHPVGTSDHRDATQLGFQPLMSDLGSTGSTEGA

B1: 1D5 (antibody, human IgG1, kappa, V domains shown)
VH: EIQLQQSGPELVKPGASVKVSCKASGYAFTSQNIYWVKQSHGKSLEWIGYIEPYNVVPMYNPKFKGKATLTVDKSSSSAYIHLNSLTSEDSAIYYCARSGSSNFDYWGQGTTLTVSS
VL: EIILTQSPTTMAASPGEKITITCSASSSISSHYLHWYQQKSGFSPKLLIYRTSNLASGVPARFSGSGSGTSYSLTIGTMEAEDVATYYCQQGSSLPLTFGAGTKVEIKR
notes: also called ID5
Consider B1, for which the EC50 – broadly, the concentration giving half of the maximal effect – with human MICA008 on cells turned out to be 0.04 µg/mL; with human MICB005 on cells, 0.142 µg/mL.
